From paper PMC9729238 (Communications Biology, 2022)

Tests used:
[1] = molecular target: Chimera of the α7-nAChR extracellular domain with acetylcholine-binding protein (α7-ECD) (human α7-nAChR / Lymnaea stagnalis AChBP chimera); experiment: cryo-EM structure
[2] = molecular target: T1, Nicotinic acetylcholine receptor of α7 type (α7-nAChR) expressed in HEK293 cells (UniProt P36544 23-502); experiment: flow cytometry on cells; conditions: one partner purified
T1 construct: also called full-length α7 receptor; α7 receptor

Molecule	stoichiometry N [1]	IC50 [2]
Chimera of the α7-nAChR extracellular domain with acetylcholine-binding protein (α7-ECD) (domain or fragment)	5	
Weak toxin from Naja kaouthia venom (WTX), recombinant analog (natural protein, disulfide (positions not given here); also: five disulfide bonds, pairing not given here) MLTCLNCPEMFCGKFQICRNGEKICFKKLHQRRPLSWRYIRGCADTCPVGKPYEMIECCSTDKCNR		26 ± 4 µM
